Data reported in patent US5605821, “Expression control sequences of the P-selectin gene” (Board of Regents of the University of Oklahoma).

T1: NFKB2 (p52) homodimer (UniProt Q00653 Q00653:1-454)
T1 sequence: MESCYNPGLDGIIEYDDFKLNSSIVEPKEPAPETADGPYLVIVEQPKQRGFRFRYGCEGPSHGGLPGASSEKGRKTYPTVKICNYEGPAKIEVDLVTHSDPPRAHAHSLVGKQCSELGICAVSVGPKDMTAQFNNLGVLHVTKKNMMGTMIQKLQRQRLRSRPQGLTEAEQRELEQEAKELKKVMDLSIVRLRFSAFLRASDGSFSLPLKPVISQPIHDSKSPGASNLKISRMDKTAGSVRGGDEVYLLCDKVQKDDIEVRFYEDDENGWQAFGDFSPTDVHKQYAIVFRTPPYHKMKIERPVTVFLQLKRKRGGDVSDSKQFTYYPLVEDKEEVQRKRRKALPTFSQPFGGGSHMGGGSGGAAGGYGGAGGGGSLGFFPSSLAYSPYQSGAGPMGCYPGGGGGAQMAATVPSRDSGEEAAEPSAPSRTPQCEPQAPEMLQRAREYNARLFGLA

B1: P-selectin 4642-4664 ATAG mutant (dsDNA)
DNA 1: GGAAGGGGGTGAATAGTTGCCTC
DNA 2: GAGGCAACTATTCACCCCCTTCC
modifications: [none]
B2: P-selectin 4642-4664 (dsDNA)
DNA 1: GGAAGGGGGTGACCCCTTGCCTC
DNA 2: GAGGCAAGGGGTCACCCCCTTCC
B3: P-selectin 4632-4672 (dsDNA)
DNA 1: CATCTTCCATGGAAGGGGGTGACCCCTTGCCTCTTGGCAAC
DNA 2: GTTGCCAAGAGGCAAGGGGTCACCCCCTTCCATGGAAGATG

Experiments:
[1] = molecular target: T1, NFKB2 (p52) homodimer; assay: EMSA; details: chain copies: 2 (stated)
[2] = molecular target: T2, NFKB1 (p50) homodimer (UniProt P19838 P19838:1-433); assay: EMSA; details: chain copies: 2 (stated)
[3] = molecular target: Rel A homodimer (UniProt Q04206 Q04206:1-551); assay: EMSA; details: chain copies: 2 (stated); label: 32P
[4] = molecular target: T1, NFKB2 (p52) homodimer; assay: EMSA; methylation interference shows contacts to GGGG on both strands; details: chain copies: 2 (stated); label: 32P
[5] = molecular target: T2, NFKB1 (p50) homodimer; assay: as above; details: chain copies: 2 (stated); label: 32P
[6] = molecular target: T1, NFKB2 (p52) homodimer; assay: EMSA; labeled oligonucleotides bound; details: chain copies: 2 (stated); label: 32P
[7] = molecular target: T2, NFKB1 (p50) homodimer; assay: EMSA; labeled oligonucleotides bound; details: chain copies: 2 (stated); label: 32P

T2 sequence (P19838 1-433, one chain of several): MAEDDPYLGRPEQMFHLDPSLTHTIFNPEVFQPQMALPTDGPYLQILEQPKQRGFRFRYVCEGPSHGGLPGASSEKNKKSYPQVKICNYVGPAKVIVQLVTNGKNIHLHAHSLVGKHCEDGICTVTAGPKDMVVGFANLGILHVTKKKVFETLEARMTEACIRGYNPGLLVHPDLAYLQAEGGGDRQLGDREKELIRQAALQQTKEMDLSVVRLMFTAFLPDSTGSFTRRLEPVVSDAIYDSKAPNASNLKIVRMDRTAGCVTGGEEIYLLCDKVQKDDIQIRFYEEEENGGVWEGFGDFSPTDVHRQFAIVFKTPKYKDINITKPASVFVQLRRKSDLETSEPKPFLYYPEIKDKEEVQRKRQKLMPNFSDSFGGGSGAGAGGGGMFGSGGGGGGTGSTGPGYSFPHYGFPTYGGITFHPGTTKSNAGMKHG
Rel A homodimer, sequence (Q04206 whole entry, one chain of several): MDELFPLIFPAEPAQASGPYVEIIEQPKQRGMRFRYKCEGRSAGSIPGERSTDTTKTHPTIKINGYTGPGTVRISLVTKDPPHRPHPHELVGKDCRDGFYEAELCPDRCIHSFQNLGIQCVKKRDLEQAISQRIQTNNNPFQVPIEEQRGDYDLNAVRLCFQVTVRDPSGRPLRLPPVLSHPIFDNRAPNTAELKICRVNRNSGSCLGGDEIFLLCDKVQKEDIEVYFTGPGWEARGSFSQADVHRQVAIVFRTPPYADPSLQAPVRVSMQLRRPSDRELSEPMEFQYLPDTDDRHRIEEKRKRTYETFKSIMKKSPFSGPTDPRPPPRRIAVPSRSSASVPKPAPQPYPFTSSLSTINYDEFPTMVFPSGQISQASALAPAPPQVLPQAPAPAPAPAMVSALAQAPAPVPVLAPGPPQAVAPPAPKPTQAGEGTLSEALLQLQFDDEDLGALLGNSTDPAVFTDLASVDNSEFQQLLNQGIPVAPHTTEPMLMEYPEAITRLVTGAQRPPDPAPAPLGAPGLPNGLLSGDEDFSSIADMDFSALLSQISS

Binder | binding result [1] | binding result [2] | binding result [3] | binding result [4] | binding result [5] | binding result [6] | binding result [7]
B1 | no binding | no binding | – | – | – | – | –
B2 | – | – | no binding | binds | binds | – | –
B3 | – | – | no binding | – | – | binds | binds
